# In patent publication US20260132182A1 (published 2026):
# Starred links: 1 amine or outer side, 2 acyl side, 3 side chain; linkers in the order of their positions; H or OH if unused. Non-standard residues stand in square brackets, D forms with d. Groups on a side chain read outwards from the residue. *: point of attachment. C20 diacid = O=C(O)CCCCCCCCCCCCCCCCCCC(=O)*; C18 diacid = O=C(O)CCCCCCCCCCCCCCCCC(=O)*; C16 diacid = O=C(O)CCCCCCCCCCCCCCC(=O)*; γGlu = O=C(O)[C@H](CCC(=O)[*:2])N[*:1]; εLys = N[C@@H](CCCCN[*:1])C(=O)[*:2]; Trx = NC[C@H]1CC[C@H](C(=O)O)CC1; AEEA = NCCOCCOCC(=O)O; Aib = CC(C)(N)C(=O)O
# T1: human amylin-3 (a) receptor (human, UniProt P30988 25-474; O60896 24-148)
# T1 sequence (looked up) 1: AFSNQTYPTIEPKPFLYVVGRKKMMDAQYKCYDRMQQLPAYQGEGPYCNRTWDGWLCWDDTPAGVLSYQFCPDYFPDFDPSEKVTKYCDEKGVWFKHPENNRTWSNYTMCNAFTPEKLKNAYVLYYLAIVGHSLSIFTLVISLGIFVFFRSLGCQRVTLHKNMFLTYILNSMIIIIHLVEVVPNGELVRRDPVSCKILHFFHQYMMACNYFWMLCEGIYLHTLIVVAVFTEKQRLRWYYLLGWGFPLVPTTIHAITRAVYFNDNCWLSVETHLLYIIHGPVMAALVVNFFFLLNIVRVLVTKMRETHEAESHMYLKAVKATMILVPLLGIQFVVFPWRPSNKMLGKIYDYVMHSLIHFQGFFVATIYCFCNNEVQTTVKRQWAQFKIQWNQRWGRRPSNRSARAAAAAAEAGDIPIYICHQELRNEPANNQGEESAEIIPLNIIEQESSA
# T1 sequence (looked up) 2: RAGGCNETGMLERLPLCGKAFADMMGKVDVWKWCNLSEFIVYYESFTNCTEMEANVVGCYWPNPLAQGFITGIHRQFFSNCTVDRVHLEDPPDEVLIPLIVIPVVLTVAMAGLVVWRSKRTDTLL
# B1: Compound 0284 (peptide)
# peptide: H[Aib]EGTFTSDVSSYLEEQAAREFIAWLVRGK([AEEA-AEEA-γGlu-C16 diacid])GGGGGEASELSTAALGRLSAELHELATLK([AEEA-AEEA-γGlu-C16 diacid])RTETGSGSP-NH2
# B2: Compound 0263 (peptide)
# peptide: H[Aib]EGTFTSDVSSYLEEQAAREFIAWLVRGRK([AEEA-AEEA-γGlu-Trx-C20 diacid])EASELSTAALGRLSAELHELATLPRTETGSGSP-NH2
# B3: Compound 0264 (peptide)
# peptide: H[Aib]EGTFTSDVSSYLEEQAAREFIAWLVRGK([AEEA-AEEA-γGlu-Trx-C20 diacid])GGGGEASELSTAALGRLSAELHELATLPRTETGSGSP-NH2
# B4: Compound 0042 (peptide)
# peptide: H[Aib]EGTFTSDVSSYLEGQAAKEFIAWLVRGRK([AEEA-AEEA-γGlu-C18 diacid])GGEASELSTAALGRLSAELHELATLPRTETGSGSP-NH2
# B5: Compound 0271 (peptide)
# peptide: HWEGTFTSDVSSYLEEK([AEEA-AEEA-γGlu-C18 diacid])AAREFIEWLVRGRGEASELSTAALGRLSAELHELATLPRTETGSGSP-NH2
# B6: Compound 0269 (peptide)
# peptide: HWEGTFTSDVSSYLEEQAAREFIEWLVRGRK([AEEA-AEEA-γGlu-Trx-C20 diacid])GGGGEASELSTAALGRLSAELHELATLPRTETGSGSP-NH2
# B7: Compound 0411 (peptide)
# peptide: H[Aib]EGTFTSDVSSYLEEK([AEEA-AEEA-γGlu-C16 diacid])AAREFIAWLVRGRGGGGGEASELSTAALGRLSAELHELATLPRTETGK([AEEA-AEEA-γGlu-C16 diacid])GSP-NH2
# B8: Compound 0261 (peptide)
# peptide: H[Aib]EGTFTSDK([AEEA-AEEA-γGlu-C16 diacid])SSYLEEQAAREFIAWLVRGRGGGGGEASELSTAALGRLSAELHELATLK([AEEA-AEEA-γGlu-C16 diacid])RTETGSGSP-NH2
# B9: Compound 0044 (peptide)
# peptide: H[Aib]EGTFTSDVSSYLEGQAAK([εLys-AEEA-AEEA-γGlu-C18 diacid])EFIAWLVRGRGGGEASELSTAALGRLSAELHELATLPRTETGSGSP-NH2
# B10: Compound 0265 (peptide)
# peptide: H[Aib]EGTFTSDVSSYLEEK([AEEA-AEEA-γGlu-Trx-C20 diacid])AAREFIAWLVRGRGGGGEASELSTAALGRLSAELHELATLPRTETGSGSP-NH2
# B11: Compound 0397 (peptide)
# peptide: H[Aib]EGTFTSDVSSYLEEK([AEEA-AEEA-γGlu-C16 diacid])AAREFIAWLVRGRGGGGGEASELSTAALGRLSAELHELATLK([AEEA-AEEA-γGlu-C16 diacid])RTETGSGSP-NH2
# B12: Compound 0297 (peptide)
# peptide: H[Aib]EGTFTSDVSSYLEEQAAREFIAWLVRK([AEEA-AEEA-γGlu-C16 diacid])RGGGGGASELSTAALGRLSK([AEEA-AEEA-γGlu-C16 diacid])ELHELATLPRTETGSGSP-NH2
# B13: Compound 0281 (peptide)
# peptide: H[Aib]EGTFTSDVSSYLEEQAAREFIAWLVRGK([AEEA-AEEA-γGlu-C16 diacid])GGGGGEASELSTAALGRLSAELHELK([AEEA-AEEA-γGlu-C16 diacid])TLPRTETGSGSP-NH2
# B14: Compound 0273 (peptide)
# peptide: HWEGTFTSDK([AEEA-AEEA-γGlu-C18 diacid])SSYLEEQAAREFIEWLVRGRGEASELSTAALGRLSAELHELATLPRTETGSGSP-NH2
# B15: Compound 0285 (peptide)
# peptide: H[Aib]EGTFTSDVSSYLEEQAAREFIAWLVRGK([AEEA-AEEA-γGlu-C16 diacid])GGGGGEASELSTAALGRLSAELHELATLPRTETGK([AEEA-AEEA-γGlu-C16 diacid])GSP-NH2
# B16: Compound 0268 (peptide)
# peptide: HWEGTFTSDVSSYLEEQAAREFIAWLVRGRK([AEEA-AEEA-γGlu-Trx-C20 diacid])GGGGEASELSTAALGRLSAELHELATLPRTETGSGSP-NH2
# B17: Compound 0270 (peptide)
# peptide: HWEGTFTSDVSSYLEEK([AEEA-AEEA-γGlu-Trx-C20 diacid])AAREFIEWLVRGRGEASELSTAALGRLSAELHELATLPRTETGSGSP-NH2
# B18: Compound 0396 (peptide)
# peptide: H[Aib]EGTFTSDVSSYLEEK([AEEA-AEEA-γGlu-C16 diacid])AAREFIAWLVRGRGGGGGEASELSTAALGRLSAELHELK([AEEA-AEEA-γGlu-C16 diacid])TLPRTETGSGSP-NH2
# B19: Compound 0296 (peptide)
# peptide: H[Aib]EGTFTSDVSSYLEEQAARK([AEEA-AEEA-γGlu-C16 diacid])FIAWLVRGRGGGGGASELSTAALGRLSK([AEEA-AEEA-γGlu-C16 diacid])ELHELATLPRTETGSGSP-NH2
# B20: Compound 0267 (peptide)
# peptide: HWEGTFTSDVSSYLEEQAAREFIEWLVRGK([AEEA-AEEA-γGlu-Trx-C20 diacid])GEASELSTAALGRLSAELHELATLPRTETGSGSP-NH2
# B21: Compound 0292 (peptide)
# peptide: H[Aib]EGTFTSDK([AEEA-AEEA-γGlu-C16 diacid])SSYLEEQAAREFIAWLVRGRGGGGGASELSTAALGRLSK([AEEA-AEEA-γGlu-C16 diacid])ELHELATLPRTETGSGSP-NH2
# B22: Compound 0272 (peptide)
# peptide: HWEGTFTSDK([AEEA-AEEA-γGlu-Trx-C20 diacid])SSYLEEQAAREFIEWLVRGRGEASELSTAALGRLSAELHELATLPRTETGSGSP-NH2
# B23: Compound 0299 (peptide)
# peptide: H[Aib]EGTFTSDVSSYLEEK([AEEA-AEEA-γGlu-C16 diacid])AAREFIAWLVRGRGGGGGEASELSTAALGRLSAELHK([AEEA-AEEA-γGlu-C16 diacid])LATLPRTETGSGSP-NH2
# B24: Compound 0294 (peptide)
# peptide: H[Aib]EGTFTSDVSSYLEK([AEEA-AEEA-γGlu-C16 diacid])QAAREFIAWLVRGRGGGGGASELSTAALGRLSK([AEEA-AEEA-γGlu-C16 diacid])ELHELATLPRTETGSGSP-NH2
# B25: Compound 0295 (peptide)
# peptide: H[Aib]EGTFTSDVSSYLEEK([AEEA-AEEA-γGlu-C16 diacid])AAREFIAWLVRGRGGGGGASELSTAALGRLSK([AEEA-AEEA-γGlu-C16 diacid])ELHELATLPRTETGSGSP-NH2
# B26: Compound 0280 (peptide)
# peptide: H[Aib]EGTFTSDVSSYLEEQAAREFIAWLVRGK([AEEA-AEEA-γGlu-C16 diacid])GGGGGEASELSTAALGRLSAELHK([AEEA-AEEA-γGlu-C16 diacid])LATLPRTETGSGSP-NH2
# B27: Compound 0266 (peptide)
# peptide: H[Aib]EGTFTSDK([AEEA-AEEA-γGlu-Trx-C20 diacid])SSYLEEQAAREFIAWLVRGRGGGGEASELSTAALGRLSAELHELATLPRTETGSGSP-NH2
# Biological target: T1, human amylin-3 (a) receptor
# Test: cell-based or functional assay
row,Binder,Human AmyR3 potency [EC50 (pM)]
1,B1,32.8 pM
2,B2,25.2 pM
3,B3,11.7 pM
4,B4,10.8 pM
5,B5,15.2 pM
6,B6,7.5 pM
7,B7,45.9 pM
8,B8,23.9 pM
9,B9,9.1 pM
10,B10,8.1 pM
11,B11,18.5 pM
12,B12,46 pM
13,B13,114 pM
14,B14,18 pM
15,B15,78.9 pM
16,B16,14.4 pM
17,B17,8.6 pM
18,B18,32.8 pM
19,B19,29.9 pM
20,B20,45.3 pM
21,B21,33.8 pM
22,B22,11.3 pM
23,B23,11.5 pM
24,B24,34.3 pM
25,B25,32.7 pM
26,B26,18 pM
27,B27,8.5 pM

# Biological target: human GLP-1 receptor (human, UniProt P43220 24-463)
# Test: cell-based or functional assay
row,Binder,Human GLP-1R potency [EC50 (pM)]
1,B1,41.7 pM
2,B2,13.8 pM
3,B3,6.5 pM
4,B4,16.2 pM
5,B5,4.6 pM
6,B6,7.7 pM
7,B7,3.5 pM
8,B8,17.4 pM
9,B9,16 pM
10,B10,6 pM
11,B11,3.8 pM
12,B12,30.2 pM
13,B13,35.2 pM
14,B14,24.9 pM
15,B15,19 pM
16,B16,26.4 pM
17,B17,6.3 pM
18,B18,4.8 pM
19,B19,4 pM
20,B20,28.5 pM
21,B21,12 pM
22,B22,9.2 pM
23,B23,6 pM
24,B24,13.7 pM
25,B25,4.8 pM
26,B26,34.3 pM
27,B27,6.3 pM
